Measurements: US20230075753A1 (UCB, published 2023)
Changes are numbered by the printed parent chain. Numbers in names are those of the source. Where “and” joins values, the source holds several entries; their conditions need not be identical. Equal entries are not always repeated.

B1: Rabbit antibody 10236 mIgG (rabbit variable regions on mouse constant regions) (antibody)
light: AYDMTQTPASVEVAVGGTVTIKCQASQSISSWLAWYQQKPGQPPKLLIYLASTLASGVSSRFKGSGSGTQFTLTISGVECADAATYYCQQGYTNSNIINTFGGGTEVVVKRTDAAPTVSIFPPSSEQLTSGGASVVCFLNNFYPKDINVKWKIDGSERQNGVLNSWTDQDSKDCTYSMSSTLTLTKDEYERHNSYTCEATHKTSTSPIVKSFNRNEC
heavy: QSVEESGGRLVTPGTPLTLTCTVSGFPLSNYAMSWVRQAPGKGLEWIGDIYPSDIIDYASWAKGRFTISQTSTTVELKITGPTTEDTATYFCARDNNDYGLDIWGPGTLVTVSSAKTTPPSVYPLAPGSAAQTNSMVTLGCLVKGYFPEPVTVTWNSGSLSSGVHTFPAVLQSDLYTLSSSVTVPSSTWPSETVTCNVAHPASSTKVDKKIVPRDCGCKPCICTVPEVSSVFIFPPKPKDVLTITLTPKVTCVVVDISKDDPEVQFSWFVDDVEVHTAQTQPREEQFNSTFRSVSELPIMHQDWLNGKEFKCRVNSAAFPAPIEKTISKTKGRPKAPQVYTIPPPKEQMAKDKVSLTCMITDFFPEDITVEWQWNGQPAENYKNTQPIMDTDGSYFVYSKLNVQKSNWEAGNTFTCSVLHEGLHNHHTEKSLSHSPGK
B2: Humanized antibody 10236 gL6 gH9 (antibody, V domains shown)
VH: EVQLQESGPGLVKPSGTLSLTCAVSGFPLSNYAMSWVRQPPGKGLEWIGDIYPSDIIDYASWAKGRVTISQDSSKTQVSLKLSSVTAADTAVYYCARDNNDYGLDIWGQGTLVTVSS
VL: AYDMTQSPSSLSASVGDRVTITCQASQSISSWLAWYQQKPGKAPKLLIYLASTLASGVPSRFSGSGSGTDFTLTISSLQPEDFATYYCQQGYTNSNIINTFGGGTKVEIKR
notes: Tested as IgG from supernatant captured by anti-human Fc
B3: Humanized antibody 10236 gL5 gH10 (antibody, V domains shown)
VH: B2 VH with Q71V
VL: B2 VL with S63K
notes: as for B2
B4: Humanized antibody 10236 gL6 Q24K gH12 (antibody, V domains shown)
VH: B2 VH with T76N
VL: B2 VL with Q24K
B5: Humanized antibody 10236 gL6gH12 (antibody, V domains shown)
VH: B2 VH with T76N
VL: B2 VL
notes: also called Ab10236gL6gH12
B6: Antibody 10236 gL6-N94DgH12 (IgG4P) (antibody, V domains shown)
VH: B2 VH with T76N
VL: B2 VL with N94D
notes: surrogate for the fully deamidated product of 10236gL6gH12
B7: Humanized antibody 10236 gL5 gH12 (antibody, V domains shown)
VH: B2 VH with T76N
VL: B2 VL with S63K
notes: as for B2
B8: Humanized antibody 10236 gL5 gH11 (antibody, V domains shown)
VH: B2 VH with S73K
VL: B2 VL with S63K
notes: as for B2
B9: Humanized antibody 10236 gL5 gH9 (antibody, V domains shown)
VH: B2 VH
VL: B2 VL with S63K
notes: as for B2
B10: Humanized antibody 10236 gL6 gH10 (antibody, V domains shown)
VH: B2 VH with Q71V
VL: B2 VL
notes: as for B2
B11: Humanized antibody 10236 gL6 gH11 (antibody, V domains shown)
VH: B2 VH with S73K
VL: B2 VL
notes: as for B2
B12: Humanized antibody 10236 gL6 Q24R gH12 (antibody, V domains shown)
VH: B2 VH with T76N
VL: B2 VL with Q24R
B13: Rabbit/human antibody 10236 (chimera) (antibody, human IgG4 S228P, kappa)
light: AYDMTQTPASVEVAVGGTVTIKCQASQSISSWLAWYQQKPGQPPKLLIYLASTLASGVSSRFKGSGSGTQFTLTISGVECADAATYYCQQGYTNSNIINTFGGGTEVVVKRTVAAPSVFIFPPSDEQLKSGTASVVCLLNNFYPREAKVQWKVDNALQSGNSQESVTEQDSKDCTYSLSSTLTLSKADYEKHKVYACEVTHQGLSSPVTKSFNRGEC
heavy: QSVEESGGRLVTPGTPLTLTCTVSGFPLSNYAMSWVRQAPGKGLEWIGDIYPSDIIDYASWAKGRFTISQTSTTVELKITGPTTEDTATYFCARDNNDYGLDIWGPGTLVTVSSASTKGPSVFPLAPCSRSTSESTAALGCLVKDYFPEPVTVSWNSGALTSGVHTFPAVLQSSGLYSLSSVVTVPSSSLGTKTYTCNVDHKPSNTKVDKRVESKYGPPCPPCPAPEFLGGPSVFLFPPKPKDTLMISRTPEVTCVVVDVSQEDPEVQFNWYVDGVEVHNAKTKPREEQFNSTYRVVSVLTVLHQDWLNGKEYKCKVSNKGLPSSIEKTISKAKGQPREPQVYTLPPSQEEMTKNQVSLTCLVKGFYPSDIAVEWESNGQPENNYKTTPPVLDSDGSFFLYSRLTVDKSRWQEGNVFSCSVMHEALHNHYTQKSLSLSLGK
notes: also called rabbit/human chimera antibody
B14: Rabbit antibody 10236 (rabbit IgG) (antibody, V domains shown)
VL: AYDMTQTPASVEVAVGGTVTIKCQASQSISSWLAWYQQKPGQPPKLLIYLASTLASGVSSRFKGSGSGTQFTLTISGVECADAATYYCQQGYTNSNIINTFGGGTEVVVK
VH: QSVEESGGRLVTPGTPLTLTCTVSGFPLSNYAMSWVRQAPGKGLEWIGDIYPSDIIDYASWAKGRFTISQTSTTVELKITGPTTEDTATYFCARDNNDYGLDIWGPGTLVTVSS
B15: Rabbit antibody 10273 mIgG (rabbit variable regions on mouse constant regions) (antibody, V domains shown)
VH: QSVEESGGRLVTPGTPLTLTCTVSGFSLSSYGMSWVRQAPGKGLEWIGIISSSGSTYYASWAKGRFTISKTSTTVDLKIASPTTEDTATYFCARDHIYRYDDYGDYPTYYGMDPWGPGTLVTVSS
VL: AVVLTQTPSPMSAAVGGTVTISCQSSQSVYNNNDLAWYQQKPGQPPKLLIYRASTLASGVPSRFSGSGSGTQFTLTISGVQCDDAATYYCLGGYDDDVDTYTFGGGTEVVVKR

What was measured:
Active human KLK5 [1] = target: T1, Active human KLK5 (human, UniProt Q9Y337 67-293); assay: cell-based or functional assay
Active cyno KLK5 [2] = target: T2, Active cyno KLK5 (cynomolgus monkey, UniProt Q9Y337 67-293 (human entry)); assay: cell-based or functional assay
T2 chain: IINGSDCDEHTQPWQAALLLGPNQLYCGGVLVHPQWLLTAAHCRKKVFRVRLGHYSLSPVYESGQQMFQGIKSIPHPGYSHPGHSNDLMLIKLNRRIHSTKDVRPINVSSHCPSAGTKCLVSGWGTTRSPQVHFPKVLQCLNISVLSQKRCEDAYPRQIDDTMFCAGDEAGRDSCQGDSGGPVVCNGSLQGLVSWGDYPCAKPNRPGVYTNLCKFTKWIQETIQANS

Active human KLK5 [3] = target: T1, Active human KLK5; assay: SPR, Biacore T200, 25 C; mIgG captured on anti-mouse Fc, human KLK5 as analyte (20-0.25 nM), 1:1 model
Protocol: The kinetics of murine IgG molecules binding to human KLK5 were assessed by surface plasmon resonance (Biacore T200, (GE Life Sciences™) at 25° C.
Kinetic parameters were determined using a 1:1 binding model using Biacore T200 Evaluation software.

Active human KLK5 [4] = target: T1, Active human KLK5; assay: SPR; repeats Table 3 (footnote: as described in example 4 and Table 3)
Active human KLK5 [5] = target: T1, Active human KLK5; assay: SPR, Biacore T200, 25 C; IgG from supernatant captured on anti-human Fc, human KLK5 as analyte (20-0.08 nM), 1:1 model
Protocol: (§1) A goat anti-human IgG Fc specific antibody (Jackson ImmunoResearch) was immobilized on a CM5 Sensor Chip via amine coupling chemistry to a level of approximately 6000RU. Each analysis cycle consisted of capture of the anti-KLK5 IgG from supernatants to the anti Fc surface, injection of KLK5 analyte (prepared in house) for 180 s at 30 μl/min followed by 600 s dissociation. At the end of each cycle the surface was regenerated at a flowrate of 10 μL/min using a 60 s injection of 50 mM HCl followed by a 30 s injection of 5 mM NaOH and a final 60 s injection of 50 mM HCl. Human KLK5 was titrated from 20 nM to 0.08 nM (5×3-fold serial dilutions) for the supernatant in HBS-EP+ running buffer (GE Healthcare®) supplemented to a final concentration of 300 mM NaCl. Buffer blank injections were included to subtract instrument noise and drift. Kinetic parameters were determined using a 1:1 binding model using Biacore T200 Evaluation software (version 3.0). Experiments were carried out at 25° C.

Active cyno KLK5 [6] = target: T2, Active cyno KLK5; assay: cell-based or functional assay
Active human KLK5 [7] = target: T1, Active human KLK5; assay: SPR, Biacore T200, 25 C; IgG captured on anti-human Fc, human KLK5 as analyte (20-0.03 nM), 1:1 model
Protocol: The kinetics of binding of both antibodies 10236gL6gH12 and 10236gL6-N94DgH12 to human KLK5 were assessed by surface plasmon resonance (Biacore T200, GE Life Sciences™) at 25° C. to assess the impact of 100% deamidation.
(§2) A goat anti-human IgG Fc specific antibody (Jackson ImmunoResearch) was immobilized on a CM5 Sensor Chip via amine coupling chemistry to a level of approximately 6000RU. Each analysis cycle consisted of capture of the anti-KLK5 IgG molecules to the anti Fc surface, injection of KLK5 analyte (prepared in house) for 300 s at 30 μl/min followed by 600 s dissociation. At the end of each cycle the surface was regenerated at a flowrate of 10 μL/min using a 60 s injection of 50 mM HCl followed by a 30 s injection of 5 mM NaOH and a final 60 s injection of 50 mM HCl. Human KLK5 was titrated from 20 nM to 0.03 nM (6×3-fold serial dilutions) in HBS-EP+ running buffer (GE Healthcare) supplemented to a final concentration of 300 mM NaCl. Buffer blank injections were included to subtract instrument noise and drift. Kinetic parameters were determined using a 1:1 binding model using Biacore T200 Evaluation software (version 3.0).

Active human KLK5 [8] = target: T1, Active human KLK5; assay: SPR; average of the 2 runs of Table 15
Active human KLK5 [9] = target: T1, Active human KLK5; assay: SPR, Biacore T200, 25 C; reference 10236gL6gH12
Protocol: as §2

Active human KLK5 [10] = target: T1, Active human KLK5; assay: SPR, Biacore T200, 25 C; IgG from supernatant captured on anti-human Fc, human KLK5 as analyte (20-0.08 nM), 1:1 model; run at the start or end of the assay
Protocol: as §1

Active human KLK5 [11] = target: T1, Active human KLK5; assay: SPR, Biacore T200, 25 C; IgG from supernatant captured on anti-human Fc, human KLK5 as analyte (20-0.08 nM), 1:1 model; second run of the chimera; second run of the chimera (start and end of the assay)
Protocol: as §1

Row | Binder | Kd (Active human KLK5 [5]) [nM] | koff (Active human KLK5 [5]) [s⁻¹] | kon (Active human KLK5 [5]) [M⁻¹ s⁻¹] | also measured
1 | B1 | – | – | – | IC50 (M), inhibition of kallikrein protease activity (fluorogenic peptide substrate) (Active human KLK5 [1]): 2.4e-10 M; IC50 (M), inhibition of kallikrein protease activity (fluorogenic peptide substrate) (Active cyno KLK5 [2]): 3.3e-11 M; Kd (Active human KLK5 [3]): 0.172 nM; koff (Active human KLK5 [3]): 0.000517 s⁻¹; kon (Active human KLK5 [3]): 3e+06 M⁻¹ s⁻¹; Kd (Active human KLK5 [4]): 0.172 nM; koff (Active human KLK5 [4]): 0.000517 s⁻¹; kon (Active human KLK5 [4]): 3e+06 M⁻¹ s⁻¹
2 | B2 | 0.475 | 0.00091 | 1.91e+06 | –
3 | B3 | 0.546 | 0.00107 | 1.97e+06 | –
4 | B4 | 0.337 | 0.000687 | 2.04e+06 | –
5 | B5 | 0.324 | 0.00066 | 2.04e+06 | IC50 (read off the curve) (Active cyno KLK5 [6]): ~0.1 nM; Kd (Active human KLK5 [7]): 0.314 nM and 0.283 nM; koff (Active human KLK5 [7]): 0.000711 s⁻¹ and 0.000658 s⁻¹; kon (Active human KLK5 [7]): 2.26e+06 M⁻¹ s⁻¹ and 2.33e+06 M⁻¹ s⁻¹; Kd (Active human KLK5 [8]): 0.299 nM
6 | B6 | – | – | – | Kd (Active human KLK5 [7]): 1.25 nM; koff (Active human KLK5 [7]): 0.00486 s⁻¹; kon (Active human KLK5 [7]): 3.89e+06 M⁻¹ s⁻¹; fold decrease of affinity against 10236gL6gH12 (Active human KLK5 [9]): 4.5 fold
7 | B7 | 0.331 | 0.000669 | 2.03e+06 | –
8 | B8 | 0.481 | 0.000811 | 1.69e+06 | –
9 | B9 | 0.484 | 0.000929 | 1.92e+06 | –
10 | B10 | 0.541 | 0.00105 | 1.93e+06 | –
11 | B11 | 0.475 | 0.000802 | 1.69e+06 | –
12 | B12 | 0.333 | 0.000669 | 2.01e+06 | –
13 | B13 | – | – | – | Kd (Active human KLK5 [10]): 0.168 nM; koff (Active human KLK5 [10]): 0.000451 s⁻¹; kon (Active human KLK5 [10]): 2.69e+06 M⁻¹ s⁻¹; Kd (Active human KLK5 [11]): 0.152 nM; koff (Active human KLK5 [11]): 0.000409 s⁻¹; kon (Active human KLK5 [11]): 2.7e+06 M⁻¹ s⁻¹
14 | B14 | – | – | – | IC50 (M), inhibition of kallikrein protease activity (fluorogenic peptide substrate) (Active human KLK5 [1]): 1.74e-10 M; IC50 (M), inhibition of kallikrein protease activity (fluorogenic peptide substrate) (Active cyno KLK5 [2]): 2.76e-11 M
15 | B15 | – | – | – | IC50 (M), inhibition of kallikrein protease activity (fluorogenic peptide substrate) (Active human KLK5 [1]): 3.48e-11 M; IC50 (M), inhibition of kallikrein protease activity (fluorogenic peptide substrate) (Active cyno KLK5 [2]): 3.01e-10 M; Kd (Active human KLK5 [3]): 0.16 nM; koff (Active human KLK5 [3]): 0.000184 s⁻¹; kon (Active human KLK5 [3]): 1.14e+06 M⁻¹ s⁻¹
